Test results taken from patent US20240376225A1 (CHILDREN S MEDICAL CENTER, published 2024).

How the values were obtained:
[1] = biological target: T1, cyno CD21 on CHO cells (cynomolgus monkey, UniProt A0A2K5URG6 21-1034); assay: flow cytometry, Ab15 titrated on CHO cells overexpressing cyno CD21, anti-human IgG-PE, Geo MFI
T1 construct: whole, on cells; also called CHO-cyno CD21 cells; CHO-cynoCD21
T1 sequence: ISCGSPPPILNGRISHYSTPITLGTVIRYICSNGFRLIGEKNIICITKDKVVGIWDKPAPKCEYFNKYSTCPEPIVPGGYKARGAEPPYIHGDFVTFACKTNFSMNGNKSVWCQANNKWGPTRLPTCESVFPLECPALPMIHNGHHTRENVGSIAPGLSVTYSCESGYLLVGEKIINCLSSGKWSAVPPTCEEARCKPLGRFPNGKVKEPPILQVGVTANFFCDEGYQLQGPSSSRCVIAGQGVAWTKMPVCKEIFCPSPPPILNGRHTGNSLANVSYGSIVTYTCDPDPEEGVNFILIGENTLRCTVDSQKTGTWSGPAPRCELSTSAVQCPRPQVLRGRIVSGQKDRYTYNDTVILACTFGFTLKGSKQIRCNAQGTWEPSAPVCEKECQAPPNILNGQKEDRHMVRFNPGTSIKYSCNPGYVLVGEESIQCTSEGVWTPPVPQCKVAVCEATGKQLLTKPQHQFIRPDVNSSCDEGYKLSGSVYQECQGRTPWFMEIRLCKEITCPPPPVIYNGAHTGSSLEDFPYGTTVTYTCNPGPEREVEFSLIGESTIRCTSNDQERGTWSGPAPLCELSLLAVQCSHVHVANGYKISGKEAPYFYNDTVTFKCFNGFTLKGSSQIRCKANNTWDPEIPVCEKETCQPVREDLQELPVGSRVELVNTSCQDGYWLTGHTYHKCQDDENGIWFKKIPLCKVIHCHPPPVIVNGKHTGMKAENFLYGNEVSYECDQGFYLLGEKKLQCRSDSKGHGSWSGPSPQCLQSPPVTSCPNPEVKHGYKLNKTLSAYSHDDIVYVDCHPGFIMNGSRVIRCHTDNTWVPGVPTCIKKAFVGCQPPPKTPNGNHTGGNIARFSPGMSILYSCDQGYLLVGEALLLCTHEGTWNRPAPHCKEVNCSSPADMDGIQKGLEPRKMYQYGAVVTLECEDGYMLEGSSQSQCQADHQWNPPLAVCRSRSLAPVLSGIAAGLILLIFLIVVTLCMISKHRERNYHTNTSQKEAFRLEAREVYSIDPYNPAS
Method: Ab15 binding to cell-surface human and cyno CD21 was determined using human Raji B cells (ATCC, Manassas, VA) and CHO cells over expressing cyno CD21. Cells expressing cyno CD21 were generated by transfecting CHO cells with a mammalian expression construct encoding full-length cyno CD21. Stable cell clones were selected on hygromycin-B, and their expression of cyno CD21 confirmed by flow cytometry.
For the Ab15 binding experiment, cells were dissociated with cell dissociation buffer (Sigma) and blocked on ice with PBS+3% bovine serum (BS)+human Fc blocker. Cells were stained on ice for 1 hr with 3-fold serially diluted Ab15 (starting from 50 nM), then washed with cold PBS. Secondary antibody (anti-human IgG-PE, 1:500 dilution, Invitrogen, cat. #H10104) was added on ice for 1 hr. Cells were washed with and resuspended in PBS, and analyzed for Ab15 binding on a BD Fortessa instrument.

[2] = biological target: T2, human CD21 protein (human, UniProt P20023 21-971, limits assumed); assay: SPR (Biacore)
T2 construct: the Biacore set-up is not described; also called huCD21; CR2
T2 sequence (looked up): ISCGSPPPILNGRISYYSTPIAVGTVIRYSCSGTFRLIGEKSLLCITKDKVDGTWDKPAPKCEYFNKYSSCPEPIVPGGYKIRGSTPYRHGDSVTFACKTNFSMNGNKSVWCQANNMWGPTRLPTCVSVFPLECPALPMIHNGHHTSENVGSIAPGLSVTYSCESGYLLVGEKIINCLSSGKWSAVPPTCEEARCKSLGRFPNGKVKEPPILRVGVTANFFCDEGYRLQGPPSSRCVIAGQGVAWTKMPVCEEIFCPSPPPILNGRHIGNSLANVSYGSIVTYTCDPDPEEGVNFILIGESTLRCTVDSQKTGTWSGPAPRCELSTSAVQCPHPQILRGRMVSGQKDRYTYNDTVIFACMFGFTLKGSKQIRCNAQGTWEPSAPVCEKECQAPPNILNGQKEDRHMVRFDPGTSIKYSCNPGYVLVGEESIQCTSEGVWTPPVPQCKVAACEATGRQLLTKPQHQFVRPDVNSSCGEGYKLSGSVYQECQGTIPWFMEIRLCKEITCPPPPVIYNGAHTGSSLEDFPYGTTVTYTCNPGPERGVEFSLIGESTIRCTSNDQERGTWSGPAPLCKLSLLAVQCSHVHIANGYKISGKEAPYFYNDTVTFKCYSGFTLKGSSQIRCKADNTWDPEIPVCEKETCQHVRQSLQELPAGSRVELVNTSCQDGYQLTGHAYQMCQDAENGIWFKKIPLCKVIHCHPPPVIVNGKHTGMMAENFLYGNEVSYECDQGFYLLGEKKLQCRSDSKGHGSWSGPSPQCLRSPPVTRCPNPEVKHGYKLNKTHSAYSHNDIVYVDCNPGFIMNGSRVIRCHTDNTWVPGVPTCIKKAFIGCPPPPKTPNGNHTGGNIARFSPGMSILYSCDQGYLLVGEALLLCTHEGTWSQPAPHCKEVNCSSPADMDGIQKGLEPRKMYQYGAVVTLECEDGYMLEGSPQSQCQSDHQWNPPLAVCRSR

EC50 [1]: 0.05 nM
Kd [2]: 15.6 nM
B1: Ab15 (antibody, human IgG1, kappa, V domains shown)
VH: QVQLVQSGAEVKKPGSSVKVSCKASGGTFSSYAISWVRQAPGQGLEWMGRIIPILGIANYAQKFQGRVTITADKSTSTAYMELSSLRSEDTAVYYCAREDDSSGYYQDWGQGTLVTVSS
VL: EIVMTQSPATLSLSPGESATLSCRAGQSINSHLAWYQQKPGQSPSLLIYDASTRATGVPARFSGSGFGTEFTLTISSLQSEDFAVYFCQQYEYWYTFGQGTKLEIKR
notes: Tb-labeled in the HTRF assay; also called 36C01; SC38-36C01 (IgG1 version)
